Assay results published in patent publication US20060115476A1 (ADIENNE, published 2006).

T1: C5 beta chain (human, UniProt P01031 19-673, reduced with DTT and treated with iodoacetamide (alkylated cysteines))
T1 construct: domain: beta chain; Separated from purified C5 by reduction, alkylation and gel filtration on Superose 12; also called beta sub-unit of C5; C5 beta subunit
T1 sequence (looked up): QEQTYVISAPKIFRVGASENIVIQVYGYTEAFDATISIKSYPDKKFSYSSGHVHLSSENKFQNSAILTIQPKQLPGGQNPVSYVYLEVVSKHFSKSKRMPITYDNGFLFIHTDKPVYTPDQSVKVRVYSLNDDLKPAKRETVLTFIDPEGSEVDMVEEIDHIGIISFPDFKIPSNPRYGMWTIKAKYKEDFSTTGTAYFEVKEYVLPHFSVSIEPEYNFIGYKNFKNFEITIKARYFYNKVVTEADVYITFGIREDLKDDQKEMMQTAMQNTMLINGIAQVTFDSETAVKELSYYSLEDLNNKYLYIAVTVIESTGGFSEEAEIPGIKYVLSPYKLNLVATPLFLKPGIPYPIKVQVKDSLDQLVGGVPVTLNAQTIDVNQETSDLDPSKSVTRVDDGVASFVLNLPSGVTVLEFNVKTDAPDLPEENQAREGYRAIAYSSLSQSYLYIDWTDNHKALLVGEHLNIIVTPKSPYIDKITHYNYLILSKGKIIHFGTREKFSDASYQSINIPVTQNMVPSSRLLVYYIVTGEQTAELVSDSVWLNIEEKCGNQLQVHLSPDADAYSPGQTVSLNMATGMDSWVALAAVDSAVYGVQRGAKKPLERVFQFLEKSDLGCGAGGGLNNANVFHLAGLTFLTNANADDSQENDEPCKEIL

B1: unrelated peptide CS5, derived from fibronectin (GEEIQIGHIPREDVDYHLYP) (peptide)
peptide: GEEIQIGHIPREDVDYHLYP
B2: scFv TS-A12/22 (scFv, not shown: small tags and cut ends)
scFv: DIRMTQSPDSLAVSLGERATINCKSSQSVLYSSNNKNYLAWYQQKPGQPPKLLIYWASTRESGVPDRFSGSGSGTDFTLTISSLQAEDVAVYYCQQYYSTPQLTFGGRTKVDIKSGGSTITSYNVYYTKLSSSGTQVQLQQSEGGVVQPGRSLRLSCAASGFTFSSYGMNWVRQAPGKGLEWVSYISSSSSTIYYADSVKGRFTISRDNSKNTLYLQMNSLRAEDTAVYYCARGPGMDVWGQGTTVTVSS
notes: Obtained from TS-A12 by VL chain shuffling; also called TS-A12/22 antibody

What was measured:
[1] = target: B2; test: competitive ELISA: scFv TSA-12/22 (1 µg/ml) pre-incubated with the peptide, then binding to C5 on solid phase, given as % of the saline control
Excerpt: (§1) This peptide corresponds to region 727-744 of the mature protein and comprises the cleavage site of C5 convertase (indicated by the arrow) between glycine 733 and arginine 734 according to SwissProt numbering for human C5 (SEQ ID P01031). The peptide was used in a competitive ELISA assay on the C5 protein on solid phase. […] (SEQ ID No. 16 of sequence listing) corresponding to a fibronectin derived peptide termed CS5.

[2] = target: T1, C5 beta chain; test: Western blot
[3] = target: T2, C5 component of the complement system (purified C5) (human, UniProt P01031 19-673; P01031 678-1676); test: SPR, BIACORE 2000, C5 immobilised on the chip
T2 construct: domain: beta chain;domain: alpha chain; In haemolytic assays it was purified C5 or the C5 of human serum; also called factor C5; C5 antigen
T2 sequence (P01031 678-1676 limits assumed, one chain of several): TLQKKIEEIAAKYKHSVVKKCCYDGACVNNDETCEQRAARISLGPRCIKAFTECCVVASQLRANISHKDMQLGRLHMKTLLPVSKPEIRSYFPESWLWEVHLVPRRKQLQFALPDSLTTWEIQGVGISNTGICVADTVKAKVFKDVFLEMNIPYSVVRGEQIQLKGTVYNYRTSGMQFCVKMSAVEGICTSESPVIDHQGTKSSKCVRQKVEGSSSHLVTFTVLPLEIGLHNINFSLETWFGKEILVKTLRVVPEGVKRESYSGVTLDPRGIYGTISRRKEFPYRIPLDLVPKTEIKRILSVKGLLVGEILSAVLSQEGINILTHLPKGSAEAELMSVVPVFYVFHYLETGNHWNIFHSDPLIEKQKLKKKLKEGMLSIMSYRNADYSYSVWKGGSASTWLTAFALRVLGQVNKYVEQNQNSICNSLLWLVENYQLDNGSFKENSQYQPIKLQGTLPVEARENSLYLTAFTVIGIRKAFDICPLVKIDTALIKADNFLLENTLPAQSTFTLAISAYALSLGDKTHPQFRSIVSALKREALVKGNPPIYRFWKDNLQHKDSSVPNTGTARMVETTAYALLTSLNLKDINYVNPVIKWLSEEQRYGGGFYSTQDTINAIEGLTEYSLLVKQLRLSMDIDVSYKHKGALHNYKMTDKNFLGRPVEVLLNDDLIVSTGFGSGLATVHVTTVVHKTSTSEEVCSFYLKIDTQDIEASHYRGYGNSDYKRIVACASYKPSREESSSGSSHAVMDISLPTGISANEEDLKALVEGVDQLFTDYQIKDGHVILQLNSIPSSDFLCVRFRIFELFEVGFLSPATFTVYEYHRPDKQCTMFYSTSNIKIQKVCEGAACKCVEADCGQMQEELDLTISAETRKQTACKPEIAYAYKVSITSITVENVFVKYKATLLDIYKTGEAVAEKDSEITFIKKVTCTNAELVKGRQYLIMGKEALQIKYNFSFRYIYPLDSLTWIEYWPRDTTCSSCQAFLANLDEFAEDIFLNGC
Experimental: The microchip (CM5, Biacore) was prepared by direct conjugation of the C5 antigen with amines (20 μg/ml in 10 mM Sodium Acetate pH 4.5). The final level of immobilisation turned out to be approximately 1000 RU (Resonance Units). Association and dissociation of antibody molecules from the bio-chip were measured using an optical detection system (Surface Plasmon Resonance).
The analysis was carried out at 25° C., at a flow of 15 μl/min, using 4 different scFv concentrations in the range comprised between 100-300 nM, in PBS, 0.005% P20 (Biacore). The binding curves were interpolated 1:1 according to the model of Langmuir, using the dedicated software termed BIAevaluation (version 3.5) with correction for the mass transfer.

[4] = target: B1; test: competitive ELISA: scFv pre-incubated with the peptide, binding to C5 on solid phase
Excerpt: as §1

| binding result [1] | Kd [3] [nM] | binding result [4] | Binder | binding result [2] |
| --- | --- | --- | --- | --- |
| no binding (tested: 800 ng) |  |  | B1 |  |
|  | 18 | no binding (tested: 800 ng) | B2 | no binding (tested: 100 ng of beta chain) |
